This is an account of results in US20020076693A1, “Novel cell surface receptor for HIV retroviruses, therapeutic and diagnostic uses” (priority 1997, published 2002).

First the molecules themselves.
B1: MIP-1α: β chemokine (protein, UniProt P10147 24-92, looked up)
C-C motif chemokine 3: SLAADTPTACCFSYTSRQIPQNFIADYFETSSQCSKPGVIFLTKRSRQVCADPSEEWVQKYVSDLELSA
B2: Rantes: β chemokine, natural ligand of CCR5 (protein, UniProt P13501 24-91, looked up)
C-C motif chemokine 5: SPYSSDTTPCCFAYIARPLPRAHIKEYFYTSGKCSNPAVVFVTRKNRQVCANPEKKWVREYINSLEMS
B3: MIP-1β: β chemokine (protein, UniProt P13236 24-92, looked up)
C-C motif chemokine 4: APMGSDPPTACCFSYTARKLPRNFVVDYYETSSLCSQPAVVFQTKRSKQVCADPSESWVQEYVYDLELN

This assay deals with HIV-1 Bal. Nature of the assay: Infection of human monocyte-derived macrophages by HIV-1 (p24). The conditions noted are these: HIV-1 BaL (TASP also Ada); p24 in supernatant. Format: cell-based. Here is the method: Macrophages are infected with BaL or Ada HIV-1 viruses, in the presence of 2 μM, 1 μM or 0.1 μM of 5[Kψ (CH2N)PR]-TASP. Cells are preincubated during 30 min at 4° C. in the presence of 5[Kψ (CH2N)PR]-TASP before adding the virus. Every 3 days interval, the whole culture supernatant is collected and is replaced by RPMI 1640 culture medium supplemented with 20% fetal calf serum (FCS), 1% antibiotics, 1% glutamine, in addition to 5[Kψ (CH2N)PR]-TASP that is kept present in the culture medium until day 14 after in vitro infection. Virus production is quantitated by titration of p24 protein in the culture supernatant at different times (days) after in vitro infection. Each value represented in the graphs represents the mean of two test samples.
Macrophages are infected by the BaL VIH-1 virus in the presence of 100 μg/ml of anti-P95, anti-P40 and anti-P30 antibody. Cells are preincubated during 30 min at 4° C. in the presence of each kind of antibody before adding the virus. The antibodies are kept present in the culture medium during the whole infection period of time. The experimental conditions are identical to those detailed in 4 +L4. The results are representative of two independent experiments.
Cells are preincubated during 30 min at 4° C. in the presence of the different molecules either alone or in association before adding the virus. Every three days period, the whole culture supernatant is collected and is replaced by RPMI 1640 culture medium supplemented with 20% fetal calf serum (FCS), 1% antibiotics, 1% glutamine, in addition to each tested molecule. Virus production is quantitated by titration of p24 protein in the culture supernatant at different times (days) after in vitro infection. Every value reprented in the graphs represents the mean of two test samples.
Take B1: the “effect on infection of human macrophages by HIV-1” value (“effect on infection” for short) was “weaker inhibitory effect”.

Turning to B2, the “effect on infection” value is recorded as “inhibit”.

On to B3, for which the “effect on infection” value is recorded as “inhibit”.
